The text below walks through data of patent publication US20240415919A1, “COMPOSITIONS AND METHODS FOR TREATMENT OF AUTOIMMUNE DISORDERS AND CANCER” (Dana-Farber Cancer Institute, Inc., priority 2021, published 2024).

In assay [1] the target is Ly49F (mouse) (UniProt Q60653). As to the kind of experiment: cell-based or functional assay.
The test system of assay [2] is FL9.2 T cells. Put plainly: FL9 peptide immunization of hosts adoptively transferred with FL9.2 T cells. Format: in vivo, mouse. On the procedure: CD45.1+B6 hosts were adoptively transferred with FL9.2 T cells and immunized i.p. with FL9 in CFA or no peptide (CFA alone) on day 0. Three days later, activation (CD69) proliferation of FL9.2 T cells (Ki67) was measured.
CD45.1^+ B6 or TCRα^−/− mice were transferred with CFSE labelled 2×10^6 FL9.2 Tg T cells followed by i.p. immunization with 100 μg FL9 or FL9-68 peptides in CFA. Proliferation and activation of FL9.2 Tg T cells in the adoptive hosts were analzyed by assessing CFSE dilution, Ki67 and CD69 expression at day 3 and 6 after transfer.
CD45.1^+B6 or TCRα^−/− mice were transferred with CFSE labelled 2×10^6 FL9.2 Tg T cells followed by i.p. immunization with 100 μg FL9 or FL9-68 peptides in CFA. Proliferation and activation of FL9.2 Tg T cells in the adoptive hosts were analzyed by assessing CFSE dilution, Ki67 and CD69 expression at day 3 and 6 after transfer.

Assay [3] deals with Balb/C heart allografts. Put plainly: Balb/C heart transplantation into skin-sensitized B6 hosts after peptide vaccination. The conditions noted are these: immunized hosts, FIG. 11B.
Assay [4] addresses T1, FL9 self-peptide (source protein not named) peptide on Qa-1b (mouse).
T1 peptide: FYAEATPML
As to the kind of experiment: multimer staining.

Assay [5] deals with T2, FL9-68, synthetic superagonist variant of the FL9 self-peptide (P to L at position 7) peptide on Qa-1b (mouse).
T2 peptide: FYAEATLML
Put plainly: activation reporter or marker.

The target of assay [6] is T1, FL9 self-peptide (source protein not …). As to the kind of experiment: Kd or kinetics.
Assay [7] addresses T3, Hsp60 (Hsp60p216) peptide on Qa-1b (mouse).
T3 peptide: GMKFDRGYI
Put plainly: multimer staining.

Ly49F (mouse), sequence (Q60653 whole entry): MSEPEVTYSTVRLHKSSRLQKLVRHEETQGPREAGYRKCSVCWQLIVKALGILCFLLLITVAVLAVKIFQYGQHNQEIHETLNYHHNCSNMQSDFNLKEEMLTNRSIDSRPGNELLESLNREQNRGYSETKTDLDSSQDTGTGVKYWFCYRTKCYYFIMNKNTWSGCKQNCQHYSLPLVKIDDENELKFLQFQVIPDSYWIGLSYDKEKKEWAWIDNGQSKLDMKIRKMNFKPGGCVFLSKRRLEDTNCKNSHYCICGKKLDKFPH

With “Chimeric anti-Ly49F Ab (HBF-719 with mIgG2a Fc) (antibody)”, the depletion of Ly49F+ CD8 Treg in spleen, lymphocytes and blood in assay [1] is over 95%.
Consider FYAEATPML [FL9, reference compound], for which the “in vivo activation/proliferation of transferred FL9 TCR+ CD8 T cells” value in assay [2] (i.p. immunization with peptide in CFA, CD45.1+ B6 or TCRα-/- hosts) is listed as “no in vivo stimulation of FL9.2 T cells”. Moreover, the “expansion of CD8 Treg after immunization” value in assay [2] (immunization of mice with the self-peptide) is listed as “did not elicit detectable expansion of CD8 Treg”. The “expansion of FL9-Qa-1 tetramer binding CD8 Treg (CD44+CD122+Ly49+CD8+T)” value in assay [3] is 8 fold.

B1: FL9.15 (TCR, V domains shown)
Valpha: GDSVTQTEGPVTVSESESLIINCTYSATSIAYPNLFWYVRYPGEGLQLLLKVITAGQKGSSRGFEATYNKETTSFHLQKASVQESDSAVYYCALGEASSGSWQLIFGSGTQLTVMP
Vbeta: DSGVVQSPRHIIKEKGGRSVLTCIPISGHSNVVWYQQTLGKELKFLIQHYEKVERDKGFLPSRFSVQQFDDYHSEMNMSALELEDSAMYFCASSLGQGNYAEQFFGPGTRLTVL
Regarding B1, in assay [4], the binding result is “no recognition”.

B2: FL9.35 (TCR, V domains shown)
Valpha: AQSVTQPDARVTVSEGASLQLRCKYSYFGTPYLFWYVQYPRQGLQLLLKYYPGDPVVQGVNGFEAEFSKSNSSFHLRKASVHWSDWAVYFCAVSMMGYKLTFGTGTSLLVDP
Vbeta: DSGVVQSPRHIIKEKGGRSVLTCIPISGHSNVVWYQQTLGKELKFLIQHYEKVERDKGFLPSRFSVQQFDDYHSEMNMSALELEDSAMYFCASSRTGGSAETLYFGSGTRLTVL
B2: the binding result in assay [4] is on record as “recognises”.

B3: FL9.40 (TCR, V domains shown)
Valpha: AQSVTQPDARVTVSEGASLQLRCKYSYFGTPYLFWYVQYPRQGLQLLLKYYPGDPVVQGVNGFEAEFSKSNSSFHLRKASVHWSDWAVYFCAVTRYGSSGNKLIFGIGTLLSVKP
Vbeta: DSGVVQSPRHIIKEKGGRSVLTCIPISGHSNVVWYQQTLGKELKFLIQHYEKVERDKGFLPSRFSVQQFDDYHSEMNMSALELEDSAMYFCASSPRLGSAETLYFGSGTRLTVL
Take B3: in assay [4], the binding result is on record as “recognises”.

B4: FL9.2 TCR (TCR, V domains shown)
Valpha: AQSVTQPDARVTVSEGASLQLRCKYSYFGTPYLFWYVQYPRQGLQLLLKYYPGDPVVQGVNGFEAEFSKSNSSFHLRKASVHWSDWAVYFCAVRANTGKLTFGDGTVLTVKP
Vbeta: DSGVVQSPRHIIKEKGGRSVLTCIPISGHSNVVWYQQTLGKELKFLIQHYEKVERDKGFLPSRFSVQQFDDYHSEMNMSALELEDSAMYFCASSPRLASAETLYFGSGTRLTVL
With B4, the binding result in assay [5] was “recognises”.

B5: FL9.30 (TCR, V domains shown)
Valpha: AQSVTQPDARVTVSEGASLQLRCKYSYFGTPYLFWYVQYPRQGLQLLLKYYPGDPVVQGVNGFEAEFSKSNSSFHLRKASVHWSDWAVYFCAVSSNNAGAKLTFGGGTRLTVRP
Vbeta: DSGVVQSPRHIIKEKGGRSVLTCIPISGHSNVVWYQQTLGKELKFLIQHYEKVERDKGFLPSRFSVQQFDDYHSEMNMSALELEDSAMYFCASSRRPASAETLYFGSGTRLTVL
For the molecule B5, in assay [4], the binding result is given as “recognises”.

B6: FL9.43 (TCR, V domains shown)
Valpha: AQSVTQPDARVTVSEGASLQLRCKYSYFGTPYLFWYVQYPRQGLQLLLKYYPGDPVVQGVNGFEAEFSKSNSSFHLRKASVHWSDWAVYFCAVKSTGSKLSFGKGAKLTVSP
Vbeta: NSGVVQSPRYIIKGKGERSILKCIPISGHLSVAWYQQTQGQELKFFIQHYDKMERDKGNLPSRFSVQQFDDYHSEMNMSALELEDSAVYFCASSPRLGSAETLYFGSGTRLTVL
Consider B6, for which, in assay [4], the binding result is listed as “recognises”.

B7: FL9.5 (TCR, V domains shown)
Valpha: AQSVTQPDARVTVSEGASLQLRCKYSYFGTPYLFWYVQYPRQGLQLLLKYYPGDPVVQGVNGFEAEFSKSNSSFHLRKASVHWSDWAVYFCAVKGGNYKPTFGKGTSLVVHP
Vbeta: NSGVVQSPRYIIKGKGERSILKCIPISGHLSVAWYQQTQGQELKFFIQHYDKMERDKGNLPSRFSVQQFDDYHSEMNMSALELEDSAVYFCASSLTGAYEQYFGPGTRLTVL
For B7, the binding result in assay [4] was “recognises”.

B8: FL9.26 (TCR, V domains shown)
Valpha: AQSVTQPDARVTVSEGASLQLRCKYSYFGTPYLFWYVQYPRQGLQLLLKYYPGDPVVQGVNGFEAEFSKSNSSFHLRKASVHWSDWAVYFCAVSTGGYKVVFGSGTRLLVSP
Vbeta: NSGVVQSPRYIIKGKGERSILKCIPISGHLSVAWYQQTQGQELKFFIQHYDKMERDKGNLPSRFSVQQFDDYHSEMNMSALELEDSAVYFCASSHRSFSGNTLYFGEGSRLIVV
As to B8, the binding result in assay [4] was “recognises”.

B9: FL9.31 (TCR, V domains shown)
Valpha: AQSVTQPDARVTVSEGASLQLRCKYSYFGTPYLFWYVQYPRQGLQLLLKYYPGDPVVQGVNGFEAEFSKSNSSFHLRKASVHWSDWAVYFCAVKDSGYNKLTFGKGTVLLVSP
Vbeta: NSGVVQSPRYIIKGKGERSILKCIPISGHLSVAWYQQTQGQELKFFIQHYDKMERDKGNLPSRFSVQQFDDYHSEMNMSALELEDSAVYFCASSLAGREQYFGPGTRLTVL
For the molecule B9, in assay [4], the binding result is on record as “recognises”.

B10: FL9.41 (TCR, V domains shown)
Valpha: AQSVTQPDARVTVSEGASLQLRCKYSYFGTPYLFWYVQYPRQGLQLLLKYYPGDPVVQGVNGFEAEFSKSNSSFHLRKASVHWSDWAVYFCAVSIWATSSGQKLVFGQGTILKVYL
Vbeta: VTLLEQNPRWRLVPRGQAVNLRCILKNSQYPWMSWYQQDLQKQLQWLFTLRSPGDKEVKSLPGADYLATRVTDTELRLQVANMSQGRTLYCTCSARQGSGNTLYFGEGSRLIVV
For the molecule B10, in assay [4], the binding result is reported as “recognises”.

B11: FL9.38 (TCR, V domains shown)
Valpha: QQKVQQSPESLSVPEGGMASLNCTSSDRNFQYFWWYRQHSGEGPKALMSIFSDGDKKEGRFTAHLNKASLHVSLHIRDSQPSDSALYFCALSESSGSWQLIFGSGTQLTVMP
Vbeta: EAAVTQSPRSKVAVTGGKVTLSCHQTNNHDYMYWYRQDTGHGLRLIHYSYVADSTEKGDIPDGYKASRPSQENFSLILELASLSQTAVYFCASRDRGDQNTLYFGAGTRLSVL
In the case of B11, the binding result in assay [4] is “no recognition”.

B12: FL9.8 TCR (TCR, V domains shown)
Valpha: AQSVTQPDARVTVSEGASLQLRCKYSYFGTPYLFWYVQYPRQGLQLLLKYYPGDPVVQGVNGFEAEFSKSNSSFHLRKASVHWSDWAVYFCAVRANYAQGLTFGLGTRVSVFP
Vbeta: NSGVVQSPRYIIKGKGERSILKCIPISGHLSVAWYQQTQGQELKFFIQHYDKMERDKGNLPSRFSVQQFDDYHSEMNMSALELEDSAVYFCASSLLGGPSAETLYFGSGTRLTVL
In the case of B12, the binding result in assay [6] is on record as “recognises”; in assay [7], “no recognition”; in assay [5], “recognises”.

B13: FL9.34 (TCR, V domains shown)
Valpha: AQSVTQPDARVTVSEGASLQLRCKYSYFGTPYLFWYVQYPRQGLQLLLKYYPGDPVVQGVNGFEAEFSKSNSSFHLRKASVHWSDWAVYFCAVRGQGGRALIFGTGTTVSVSP
Vbeta: NSGVVQSPRYIIKGKGERSILKCIPISGHLSVAWYQQTQGQELKFFIQHYDKMERDKGNLPSRFSVQQFDDYHSEMNMSALELEDSAVYFCASSPGPSQNTLYFGAGTRLSVL
With B13, in assay [4], the binding result was “recognises”.
